Assay results taken from the Human Domainome abundance scans (Beltran et al. 2025).

B1: Zinc finger homeobox protein 3, residues 2147 to 2202; numbered along this chain, Q15911 (parent)
chain: RPRTRITDDQLRVLRQYFDINNSPSEEQIKEMADKSGLPQKVIKHWFRNTLFKERQ

Variants of: B1
Assay: abundance fitness (aPCA) (normalised: wild type 0, dead -1); higher = more abundant; growth selection in yeast, the domain comes from the species named
Conditions: Homo sapiens

Abundance fitness, by site and new letter:
I43: D -1.12; G -1; K -0.945; M -0.706; F -0.864; E -0.767; Y -1.08; T -0.54; P -1.05; Q -1; N -0.959; A -0.534; R -1.21; L -0.443; S -0.987; V -0.015; C -0.349
V42: K -0.051; P -0.618; Y -0.18; T -0.027; W -0.119; C 0.058; R -0.028; S -0.139; H -0.374; A -0.098; L -0.103; M -0.218; I -0.074; N -0.15; D 0.094; F -0.293
L38: C -0.143; P -0.858; E -0.706; S -0.712; V -0.008; Q -0.649; Y -1.05; I -0.124; T -0.449; K -1.04; M -0.302; G -0.857; F -0.762; D -1.02; H -1.1; R -0.971; N -1.15
T50: L -0.17; M -0.051; V -0.078; I -0.262; N -0.044; D -0.264; Q -0.16; R -0.068; P -0.335; G -0.187; H -0.048; F -0.341; S -0.016; E -0.047; K 0.094; A -0.11; C -0.314
P39: V -0.119; T -0.031; W -0.564; C -0.192; N -0.249; I -0.199; G -0.016; A -0.068; H -0.079; Q -0.167; E 0.009; S 0.045; D -0.015; F -0.746; R -0.156; L -0.329; M -0.258; Y -0.284
R55: E -0.173; G -0.054; A -0.139; D 0.114; C -0.313; H 0.013; F -0.146; I -0.096
G37: M -0.341; I -0.762; C -0.037; L -0.278; H -0.361; T -0.342; A -0.176; W -0.535; V -0.427; K -0.048; Q -0.245; R -0.071; F -0.504; S -0.151; N -0.124; D -0.103; Y -0.424; E -0.155
K41: M -0.011; Y -0.389; Q 0.095; F -0.274; G 0.108; R -0.142; W -0.361; D -0.054; A -0.056; I -0.022; L -0.004; N -0.053; V -0.108; E 0.01; P -0.259; C 0.126; S -0.02
N49: L -0.117; V -0.053; H -0.451; K 0.06; R 0.02; S -0.06; G -0.124; D 0.001; Q -0.075; P -0.65; I -0.236; T -0.039; C 0.082; Y -0.145; W -0.014; A -0.061; M -0.093; F -0.194; E 0.153
K35: W -0.346; Y -0.357
F52: D -0.098; A 0.074; N 0.069; E -0.015; K 0.185; S -0.029; I -0.296; T 0.181; R 0.148; C 0.01; M 0.101; W -0.161; G 0.09; L 0.026; P -0.059; V 0.05; H -0.189
Q40: N 0.102; M -0.103; W -0.068; V -0.046; P 0.121; L 0.072; R 0.022; E 0.105; H 0.025; G -0.073; Y 0.088; K 0.193; F -0.172; T 0.054; S 0.014; D -0.06; C -0.118; I -0.162
W46: I -0.118; T -0.555; P -0.812; N -0.561; K -0.738; Q -0.576; V -0.177; F -0.163; Y -0.439; C -0.524; S -0.83; A -0.63; M -0.429; E -0.348; D -0.361; R -0.812
R48: E 0.057; Y -0.413; N 0.102; A -0.042; C -0.446; F -0.023; S -0.121; K 0.107; M -0.06; W -0.306; H -0.064; Q 0.008; P -0.461; G -0.118; T -0.07; I -0.009
L51: E -0.116; V -0.119; F -0.214; P -0.224; M 0.047; C -0.088; R -0.013; S 0.015; Q 0.044; G -0.073; H 0.016; T -0.059; A -0.037; I -0.232; Y -0.007; K 0.244; W -0.34; N -0.014
H45: W 0.028; K 0.141; A 0.039; D 0.109; L -0.032; Q 0.085; Y -0.036; I -0.09; G 0.007; S 0.028; C -0.194; F 0.009; P -0.377; E 0.106; M 0.029; R -0.052; V 0.015
K44: W -0.176; D -0.08; I -0.102; N -0.334; R -0.069; Y -0.354; S -0.214; V -0.107; H -0.131; L -0.03; E -0.146; G -0.11; F -0.175; A -0.096; T -0.246; M -0.2
S36: F -0.099; A 0.045; P -0.853; M -0.157; K -0.706; H -0.057; R -0.828; C -0.156; L 0.019; D -0.669; Y -0.178; W -0.182; E -0.14; T 0.127; V -0.031; I 0.078; N 0.018; G -0.449
E54: Y -0.277; T -0.048; D 0.046; S -0.128; G -0.291; M -0.107; V -0.159; H 0.085; Q 0.04; L -0.127; P -0.367; I 0.235; C -0.149; R -0.101; K -0.344
K53: A 0.017; H -0.07; Q 0.055; Y 0.141; N -0.041; W -0.299; S -0.056; P -0.192; C -0.269; E -0.006; F -0.195; L -0.163; M 0.09; V -0.167; R -0.033; I -0.124; D -0.18; T 0.017
F47: S -0.632; Y -0.273; P -0.912; V -0.17; Q -0.801; W -0.188; R -0.858; M -0.242; K -0.774; C -0.169; N -0.526; H -0.699; D -0.819; I -0.265; L -0.211; A -0.482
